Series [1] addresses T1, ratVEGF1-165 homodimer (recombinant full-length ratVEGF) (Rattus norvegicus, UniProt P16612).
T1 construct: humanVEGF), and D) ratVEGF1-165 homodimer (recombinant full-length ratVEGF); For
T1 sequence (P16612 27-165 isoform P16612-2 limits assumed): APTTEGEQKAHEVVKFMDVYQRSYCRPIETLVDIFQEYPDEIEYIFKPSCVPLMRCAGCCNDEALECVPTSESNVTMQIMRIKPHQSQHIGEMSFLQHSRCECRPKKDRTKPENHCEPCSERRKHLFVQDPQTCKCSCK
Description: Binding of rat-antisera in ELISA to ratVEGF1-165 homodimer. The note with it: coat ratVEGF1-165 homodimer; Avastin. A general note: ELISA stands for enzyme-linked immunosorbent assay.
Description: Therefore, polystyrene 96-well plates (Greiner, Germany) were treated with 100 μL/well of 0.2% glutaric dialdehyde in phosphate-buffer (0.1 M, pH=5) for four hours at room temperature while shaking, following by washing (3×10 minutes) with phosphate-buffer (0.1 M, pH=8). Then, the wells were coated with 100 μL/well of a 1 μg/mL solution of oxid-humVEGF26-104/humVEGF1-165 in phosphate-buffer (0.1 M, pH=8) for three hours at 37° C., followed by overnight standing at room temperature. After washing with 1% TWEEN®-80 (3×), the plates were incubated with the antibody at various different dilutions in horse serum (4% in PBS/1% TWEEN®-80/3% NaCl), starting with 1/10 dilution in the first well and three-fold dilution steps in subsequent wells. Incubation was performed for one hour at 37° C., followed by washing with 1% TWEEN®-80 (3×). Then, the plates were incubated with 100 μL/well of peroxidase-labeled Goat-anti-rat serum (1/1000 dilution in 4% horse serum, see above) for one hour at 25° C., followed by washing with 1% TWEEN®-80 (4×). […] OD405 nm-values were measured after 45 minutes standing at room temperature in the dark.
Titers were calculated by determining the serum dilution for which OD405 nm is equal to 4×OD405 nm that of a buffer solution (see “ELISA-binding studies, example 1B”). […]

In a further series the test system is Avastin™. Description: Competition ELISA: inhibition of Avastin-binding to surface-immobilized humVEGF1-165 by peptides.
Series [2] has as its system humTGFB2trunc-1, humTGFB2trunc-2, humVEGFtrunc. Description: ELISA binding of 9wpv-rat sera to humTGFB2trunc-1, humTGFB2trunc-2 and humVEGFtrunc. Set-up: species or system human. The source says:
(§1) FIG. 21. (Panel A) Antibody titers in ELISA for 9wpv-rat sera (1 and 2+pre-immune sera) that were elicited via immunization with oxid-humTGFB215-111/Δ49-77-humVEGF62-67. Titers were defined as the −10 log [conc] at which the OD in ELISA is equal to 4× the background signal. (Panel B) Antibody binding in ELISA of 9wpv-rat sera to surface-immobilized 1) humTGFB2trunc-1 (with VEGF b2-loop), 2) humTGFB2trunc-2 (with sequence PGGSPA replacing native humTGF-B2 b2-loop), and 3) humVEGFtrunc.
(§2) Each animal received four inoculations (0, 2, 4, and 7.5 wks) with 2×450+2×130 microgram of oxid-humTGFB215-111/Δ49-77-humVEGF62-67.

The next series addresses T2, full-length TGF-B2 (Homo sapiens, UniProt P61812).
T2 sequence (P61812 303-414 limits assumed): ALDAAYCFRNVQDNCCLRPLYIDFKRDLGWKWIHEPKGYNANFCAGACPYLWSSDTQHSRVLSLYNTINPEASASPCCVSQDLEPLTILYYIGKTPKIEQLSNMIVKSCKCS
Description: ELISA titers of rat antisera to full-length TGF-B2 after immunization with the chimeric peptide. It is filed as binding.
Source text: as §1, §2

Series [3] relates to BaF3 cells (murine pre-B lymphocytes stable expressing human humVEGF-Receptor 2). Description: BaF3-cell proliferation in the presence of oxid-humVEGF26-104. It is filed as cell-based. How it is done: FIG. 8. Proliferation data from BaF3/cell assay with humVEGF26-104 at various concentration (0.01-20 ng/mL), either in the absence and presence of humVEGF1-165. Level of proliferation observed at humVEGF1-165=1.2 ng/mL was set by default to 100%, other proliferation levels were expressed as % of default.
The cells that are used in the assay are murine pre-B lymphocytes stable expressing human (h) humVEGF-Receptor 2 (Makinen et al., 2001). These recombinant cells survive/proliferate only in the presence of IL-3 (natural cytokine required for the survival of the parental cells) or humVEGF. […]
Two days later, cell proliferation was measured by adding WST-1 (Roche #1644807). […]
The WST-1 assay is based on the measurement of the mitochondrial succinate dehydrogenase activity. […] A tetrazolium salt (WST-1) is used as substrate since it generates a soluble dark metabolic (formazon) through the action of the enzyme, which can then be quantified by measuring the absorbance (450 nm) in an ELISA reader. The higher the absorbance measured in the assay, the stronger the proliferation. Absorbance is positively correlated with proliferation. […]
In order to check whether oxid-humVEGF26-104, the truncated form of humVEGF1-165, is also able to induce BaF3-cell proliferation, we measured cell proliferation in the presence of varying amounts of oxid-humVEGF26-104 (0.01-20 ng/mL). […]

The next series has as its target T3, humVEGF1-165 (Homo sapiens, UniProt P15692).
T3 sequence (P15692 27-191 isoform P15692-4 limits assumed): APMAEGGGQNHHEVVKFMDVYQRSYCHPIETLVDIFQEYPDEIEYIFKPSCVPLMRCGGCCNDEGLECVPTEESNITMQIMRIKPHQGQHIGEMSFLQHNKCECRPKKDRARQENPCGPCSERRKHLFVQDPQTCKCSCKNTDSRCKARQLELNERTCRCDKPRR
Description: ELISA titer determination of antisera on surface-immobilized humVEGF1-165 after immunization with oxid-humVEGF26-104. Type of series: binding. Conditions: female Wistar rats and female Balb/C mice.

Series [4] is described as follows: Immunization study in Wistar rats with oxid-ratVEGF26-104 and oxid-humVEGF26-104. Type of series: in vivo. The note with it: 250 micrograms, CoVaccine, days 0, 14, 28, 42; bled day 56. The source says:
This example describes the results of an immunization study in male Whistar rats with both oxid-hum-VEGF26-104 and oxid-ratVEGF26-104 with an intact cystine-knot fold (oxid-form). […] The use of truncated VEGF as described in this patent can thus be used to bypass immune tolerance to “self proteins,” like, for example, the full-length homodimeric VEGF protein in this particular case.
A total of four Wistar rats (2×2) were immunized on day 0 with 250 micrograms each of either oxid-ratVEGF26-104 (two rats) or oxid-humVEGF26-104 (two rats) using CoVaccine as adjuvant, followed by booster inoculations at day 14, 28, and 42. The rats were finally bled at day 56, and the sera were analyzed for antibody titers against ratVEGF1-165, humVEGF1-165, oxid-ratVEGF26-104, and oxid-humVEGF26-104.

Data on 5 molecules can be found in patent US8772236B2, “Truncated cystine-knot proteins” (Pepscan Systems B.V., priority 2009, dated 2014).

Where “and” joins values, the source holds several entries; their conditions need not be identical. Identical values can stand only once.

Turning to “Avastin: humanized anti-humVEGF monoclonal antibody (Genentech)”, the “titer endblood (mAb, as concentration)” value in series [1] is less than 1000 ng/mL.

As to “(cyclic) peptide-mimic derived from the beta3-loop of humVEGF: backbone-cyclized peptide covering only the β5-turn-β6 loop of humVEGF (humVEGF74-98) (SNITMQIMRIKPHQGQHIGEMSFLQ; cyclised or stapled) [reference compound]”, the “fold less active in binding to Avastin™” value with Avastin™ is > 10,000 fold.

B1: oxid-humTGFB215-111/Δ49-77-humVEGF62-67: chimeric truncated human TGFB2 residues 15-111 with beta2-loop replaced by humVEGF 62-67 (SEQ ID NO:35) (peptide)
chain: CALRPLYIDFKRDLGWKWIHEPKGYNANFCAGACNDEGLECVSQDLEPLTILYYIGKTPKIEQLSNMIVKSCKC
modifications: oxidized; humTGFB2-humVEGF
Take B1: the “specificity of antibodies in the sera (TGFB2-part versus VEGF-part)” value in series [2] is given as “majority of antibodies in the sera were directed towards the TGFB2-part of the peptide”. Besides, in the series with full-length TGF-B2 (pre-immune sera of the two rats), the “titer in ELISA to full-length TGF-B2, pre-immune sera” value is not above 2.1. Further, in the series with full-length TGF-B2 (rat antisera), the “cross-reactivity of elicited antibodies with native humTGF-B2” value is reported as “fully cross-reactive with the native protein humTGF-B2”. The “titer in ELISA to full-length TGF-B2, nine weeks post vaccination antisera” value with full-length TGF-B2 (two rats, inoculations at 0, 2, 4, 7.5 wks, titer = -10log[conc] at which OD = 4x background) was 3.8 and 4.1.

B2: oxid-humVEGF26-104: truncated human VEGF residues 26-104, N-acetylated, C-amidated, cystine-knot folded (SEQ ID NO:27) (peptide)
chain: CHPIETLVDIFQEYPDEIEYIFKPSAVPLMRCGGACNDEGLECVPTEESNITMQIMRIKPHQGQHIGEMSFLQHNKCEC
modifications: N-acetyl, C-amide, cystine-knot folded; VEGF26-104
For the molecule B2, the “difference in affinity (as compared to humVEGF1-165) to Avastin™” value in the series with Avastin™ (10 ng/mL Avastin) is “less than five”. In addition, the “effect on the proliferating ability of humVEGF1-165” value in series [3] (0.01-20 ng/mL in the presence of humVEGF1-165=1.2 ng/mL) is recorded as “nor any affect on the proliferating ability of humVEGF1-165”. Further, in series [3] (0.01-20 ng/mL, absence of humVEGF1-165), the “activity in BaF3-cell proliferation” value is given as “no activity”. For the same molecule, the “antibody generation via immunization (not conjugated to a carrier protein)” value in the series with humVEGF1-165 was “high levels of antibodies were successfully generated”.

B3: oxid-ratVEGF26-104: truncated rat VEGF residues 26-104, acetylated and amidated, cystine-knot folded (SEQ ID NO:30) (peptide)
chain: CRPIETLVDIFQEYPDEIEYIFKPSAVPLMRCAGACNDEALECVPTSESNVTMQIMRIKPHQSQHIGEMSFLQHSRCEC
modifications: N-acetyl, C-amide, cystine-knot folded; ratVEGF26-104
Take B3: the “immunogenicity in rats compared to oxid-humVEGF26-104” value in series [4] was “equally immunogenic and potent as compared to oxid-humVEGF26-104”.
